Drawing on patent US20250263461A1, this text covers Kd, koff and kon for 3 substances.

Experiment [1] concerns the target pMHC1 complex: Biotin-HLA-A*02:01-… (SEQ ID NO: 1). The experiment can be described thus: SPR, pMHC on streptavidin chip, soluble TCR as analyte, 1:1 binding model.
Experiment [2] concerns the target NY-ESO-1 and/or LAGE-1a peptide on HLA-A*02:01 (human). The experiment can be described thus: surface plasmon resonance; biotinylated pMHC on streptavidin chip, soluble TCR as analyte; 1:1 binding model; soluble, other. On the technique in general: SPR reads the build-up and loss of mass on a sensor chip optically.
Experiment [3] shares this target. The experiment can be described thus: surface plasmon resonance; biotinylated pMHC on streptavidin chip, soluble TCR 0 to 250 nM as analyte; 1:1 binding model; soluble, other.
Experiment [4] shares this target. The experiment can be described thus: value quoted for comparison with 1G4LY; no measurement of 1G4 is described in this filing.

As to soluble 1G4LY TCR, in experiment [1], the Kd (usually a measure of binding affinity in units of concentration) worked out at 761 nM; the off-rate (koff) (commonly the first-order rate constant of dissociation) was 0.0303 s⁻¹; the on-rate (kon) – broadly, the second-order rate constant of association – turned out to be 39800 M⁻¹ s⁻¹.

In the case of 1G4LY TCR, in experiment [2], the koff was 0.0303 s⁻¹ and the on-rate (kon) came out at 39800 M⁻¹ s⁻¹. In experiment [3], this substance yielded a dissociation constant Kd of 761 nM.

As for 1G4 TCR, in experiment [4], the equilibrium dissociation constant (Kd) was 32 µM.
